According to patent US20050048622A1 (Genentech, published 2005):

B1: RSE.Fc (Fc fusion, UniProt Q06418 41-428, looked up)
chain: AGLKLMGAPVKLTVSQGQPVKLNCSVEGMEEPDIQWVKDGAVVQNLDQLYIPVSEQHWIGFLSLKSVERSDAGRYWCQVEDGGETEISQPVWLTVEGVPFFTVEPKDLAVPPNAPFQLSCEAVGPPEPVTIVWWRGTTKIGGPAPSPSVLNVTGVTQSTMFSCEAHNLKGLASSRTATVHLQALPAAPFNITVTKLSSSNASVAWMPGADGRALLQSCTVQVTQAPGGWEVLAVVVPVPPFTCLLRDLVPATNYSLRVRCANALGPSPYADWVPFQTKGLAPASAPQNLHAIRTDSGLILEWEEVIPEAPLEGPLGPYKLSWVQDNGTQDELTVEGTRANLTGWDPQKDLIVRVCVSNAVGCGPWSQPLVVSSHDRAGQQGPPHSRTS
notes: Control; also called control fusion protein; control receptor RSE.Fc; not shown: Fc part

Experiments:
[1] = molecular target: ErbB4.Fc (UniProt Q15303); assay: displacement of ^125I-NRG3^EGF.Fc from immobilized ErbB4.Fc, 96-well plate
Chain of ErbB4.Fc (Q15303 26-651 limits assumed): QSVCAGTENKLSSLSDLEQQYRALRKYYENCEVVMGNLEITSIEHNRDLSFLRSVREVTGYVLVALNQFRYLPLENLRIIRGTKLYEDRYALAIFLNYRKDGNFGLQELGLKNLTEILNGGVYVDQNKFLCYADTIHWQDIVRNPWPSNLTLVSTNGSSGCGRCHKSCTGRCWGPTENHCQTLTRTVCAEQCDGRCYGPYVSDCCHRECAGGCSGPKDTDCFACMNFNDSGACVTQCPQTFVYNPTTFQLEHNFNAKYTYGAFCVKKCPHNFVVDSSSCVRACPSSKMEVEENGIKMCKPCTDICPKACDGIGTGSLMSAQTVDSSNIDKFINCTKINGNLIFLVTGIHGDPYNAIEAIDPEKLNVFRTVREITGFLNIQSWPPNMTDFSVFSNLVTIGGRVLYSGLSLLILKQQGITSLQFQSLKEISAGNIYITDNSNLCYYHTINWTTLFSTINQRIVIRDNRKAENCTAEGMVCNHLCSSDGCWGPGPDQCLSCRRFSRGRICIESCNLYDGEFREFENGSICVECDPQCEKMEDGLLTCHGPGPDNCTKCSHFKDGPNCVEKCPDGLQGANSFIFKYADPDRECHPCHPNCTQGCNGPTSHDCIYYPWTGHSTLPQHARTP

[2] = molecular target: T1, human ErbB4 receptor (human, UniProt Q15303 26-1308); assay: FACS on K562^erbB4 cells
T1 construct: whole, on cells; also called HER4; K562^erbB4 cells
T1 sequence (Q15303 26-1308): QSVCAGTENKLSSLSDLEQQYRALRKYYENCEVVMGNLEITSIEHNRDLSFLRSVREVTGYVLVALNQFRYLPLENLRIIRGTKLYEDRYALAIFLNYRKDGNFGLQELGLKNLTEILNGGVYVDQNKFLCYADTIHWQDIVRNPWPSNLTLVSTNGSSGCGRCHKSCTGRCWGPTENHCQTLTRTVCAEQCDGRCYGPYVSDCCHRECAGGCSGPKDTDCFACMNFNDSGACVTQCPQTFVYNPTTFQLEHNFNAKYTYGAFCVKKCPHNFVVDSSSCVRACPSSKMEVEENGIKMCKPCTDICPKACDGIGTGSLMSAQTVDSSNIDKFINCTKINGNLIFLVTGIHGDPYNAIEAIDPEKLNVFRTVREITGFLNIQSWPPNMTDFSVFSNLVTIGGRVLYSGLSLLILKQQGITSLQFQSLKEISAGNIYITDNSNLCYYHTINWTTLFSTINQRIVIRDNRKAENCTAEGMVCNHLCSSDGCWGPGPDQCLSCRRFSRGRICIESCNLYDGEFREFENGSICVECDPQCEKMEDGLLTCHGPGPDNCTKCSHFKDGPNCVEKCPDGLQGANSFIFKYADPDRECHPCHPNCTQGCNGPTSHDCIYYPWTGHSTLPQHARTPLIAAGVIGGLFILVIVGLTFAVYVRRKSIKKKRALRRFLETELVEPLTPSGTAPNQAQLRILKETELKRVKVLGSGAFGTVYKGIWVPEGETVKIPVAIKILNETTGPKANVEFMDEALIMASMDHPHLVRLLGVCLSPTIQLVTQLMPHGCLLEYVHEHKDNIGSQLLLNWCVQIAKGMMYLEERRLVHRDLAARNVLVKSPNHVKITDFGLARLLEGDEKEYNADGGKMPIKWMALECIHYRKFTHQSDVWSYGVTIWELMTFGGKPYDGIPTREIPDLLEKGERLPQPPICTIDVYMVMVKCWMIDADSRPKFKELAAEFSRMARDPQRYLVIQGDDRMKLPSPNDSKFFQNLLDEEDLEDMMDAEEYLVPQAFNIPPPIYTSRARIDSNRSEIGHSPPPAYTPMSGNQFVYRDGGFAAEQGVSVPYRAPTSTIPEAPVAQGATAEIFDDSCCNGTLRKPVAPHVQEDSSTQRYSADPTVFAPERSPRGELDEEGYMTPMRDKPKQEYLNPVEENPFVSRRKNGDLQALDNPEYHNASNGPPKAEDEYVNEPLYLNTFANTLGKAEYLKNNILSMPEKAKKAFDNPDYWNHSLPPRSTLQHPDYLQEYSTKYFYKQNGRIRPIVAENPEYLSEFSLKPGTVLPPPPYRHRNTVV

[3] = molecular target: T2, human ErbB3 receptor (human, UniProt P21860 20-1342); assay: FACS on K562^erbB3 cells
T2 construct: whole, on cells; also called HER3; K562^erbB3 cells
T2 sequence (P21860 20-1342): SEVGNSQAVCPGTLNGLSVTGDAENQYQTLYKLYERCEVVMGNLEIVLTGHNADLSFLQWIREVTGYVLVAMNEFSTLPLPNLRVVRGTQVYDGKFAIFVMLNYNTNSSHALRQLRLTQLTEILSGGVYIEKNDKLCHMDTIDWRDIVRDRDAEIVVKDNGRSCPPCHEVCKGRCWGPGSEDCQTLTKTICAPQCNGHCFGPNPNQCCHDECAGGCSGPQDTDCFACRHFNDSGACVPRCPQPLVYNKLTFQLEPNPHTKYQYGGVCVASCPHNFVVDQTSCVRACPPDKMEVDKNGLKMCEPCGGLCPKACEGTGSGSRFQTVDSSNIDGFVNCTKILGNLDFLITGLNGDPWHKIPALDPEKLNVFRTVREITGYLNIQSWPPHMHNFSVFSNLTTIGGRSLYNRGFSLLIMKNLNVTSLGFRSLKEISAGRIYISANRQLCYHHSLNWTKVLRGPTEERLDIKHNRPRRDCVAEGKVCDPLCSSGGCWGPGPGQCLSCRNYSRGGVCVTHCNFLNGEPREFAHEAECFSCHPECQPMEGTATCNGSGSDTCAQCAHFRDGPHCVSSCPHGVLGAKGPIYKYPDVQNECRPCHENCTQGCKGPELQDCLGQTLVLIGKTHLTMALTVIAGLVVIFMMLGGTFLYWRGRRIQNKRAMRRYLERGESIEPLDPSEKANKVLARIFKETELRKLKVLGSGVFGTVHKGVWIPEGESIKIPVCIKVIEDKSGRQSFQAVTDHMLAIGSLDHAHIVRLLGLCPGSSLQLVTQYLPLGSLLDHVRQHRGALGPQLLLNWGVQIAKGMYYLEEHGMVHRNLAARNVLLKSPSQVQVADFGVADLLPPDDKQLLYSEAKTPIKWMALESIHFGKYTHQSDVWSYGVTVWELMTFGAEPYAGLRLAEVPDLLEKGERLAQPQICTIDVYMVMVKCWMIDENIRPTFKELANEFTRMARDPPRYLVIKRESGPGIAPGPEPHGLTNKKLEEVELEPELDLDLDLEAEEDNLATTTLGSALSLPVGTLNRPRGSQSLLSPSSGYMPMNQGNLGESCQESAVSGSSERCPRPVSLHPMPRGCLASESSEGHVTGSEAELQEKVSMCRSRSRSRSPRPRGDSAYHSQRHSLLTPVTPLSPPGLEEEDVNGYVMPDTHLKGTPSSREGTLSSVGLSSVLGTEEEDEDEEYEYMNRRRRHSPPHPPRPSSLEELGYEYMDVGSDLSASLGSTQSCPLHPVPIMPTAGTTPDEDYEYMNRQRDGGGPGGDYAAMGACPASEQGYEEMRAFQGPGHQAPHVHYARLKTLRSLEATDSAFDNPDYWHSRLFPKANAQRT

[4] = molecular target: T3, human ErbB2 receptor (human, UniProt P04626 23-1255); assay: FACS on K562^erbB2 cells
T3 construct: whole, on cells; also called HER2; K562^erbB2 cells

Molecule | Ki [1] [nM] | binding result [2] | binding result [3] | binding result [4]
NRG1^EGF (rHRGβ1 177-244) (from UniProt Q02297 177-244) (ligand) | 1 |  |  | 
B1 |  | no binding | no binding | no binding
